Experimental data as given in article PMC4508901 (The Journal of Cell Biology, 2015).

Target: the molecule itself
Test: cross-linking

B1: purified Egd2 (expressed in E. coli) (natural protein, S. cerevisiae, UniProt P38879 1-174, looked up)
chain: MSAIPENANVTVLNKNEKKARELIGKLGLKQIPGIIRVTFRKKDNQIYAIEKPEVFRSAGGNYVVFGEAKVDNFTQKLAAAQQQAQASGIMPSNEDVATKSPEDIQADMQAAAEGSVNAAAEEDDEEGEVDAGDLNKDDIELVVQQTNVSKNQAIKALKAHNGDLVNAIMSLSK
stoichiometry N: 2
